Experimental data from article PMC2950913 (Nature structural & molecular biology, 2010).

Target: T1, RAD51 recombinase (human, UniProt Q06609 1-339)
T1 sequence: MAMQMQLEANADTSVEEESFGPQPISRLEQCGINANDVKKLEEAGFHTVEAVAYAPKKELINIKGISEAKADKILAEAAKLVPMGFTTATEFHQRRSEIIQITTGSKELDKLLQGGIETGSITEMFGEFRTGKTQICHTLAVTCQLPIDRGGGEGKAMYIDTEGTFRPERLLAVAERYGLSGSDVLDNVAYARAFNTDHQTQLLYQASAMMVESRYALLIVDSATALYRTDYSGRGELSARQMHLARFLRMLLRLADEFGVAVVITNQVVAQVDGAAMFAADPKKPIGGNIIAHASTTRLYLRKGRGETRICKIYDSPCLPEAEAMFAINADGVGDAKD
Experiment: pull-down

B1: GST-tagged PALB2 1-184 fragment (domain or fragment)
chain: MDEPPGKPLSCEEKEKLKEKLAFLKREYSKTLARLQRAQRAEKIKHSIKKTVEEQDCLSQQDLSPQLKHSEPKNKICVYDKLHIKTHLDEETGEKTSITLDVGPESFNPGDGPGGLPIQRTDDTQEHFPHRVSDPSGEQKQKLPSRRKKQQKRTFISQERDCVFGTDSLRLSGKRLKEQEEISS
binding result: binds
